Data taken from US20250197499A1 (STEALTH IO, published 2025).
Values belong to the binder of their own block, whether it stands above or below them.

Key:
[1] = target: T1, Recombinant human sCD28 Fc-fusion protein (PeproTech, #310-34) (human, UniProt P10747 19-152); assay: Octet RED96e; sCD28 Fc-fusion loaded at 2,5 µg/ml on protA sensor; sample 588,2 nM; control without CD28-binding Fab
T1 construct: Bought protein; also called soluble CD28; not shown: Fc part of the bought fusion; not described
Experimental: (§1) FIG. 5a is a graph of Octet binding studies on sCD28. Recombinant human sCD28 Fc-fusion protein (PeproTech, #310-34) was loaded to protA sensor at 2.5 μg/ml and the binding of each construct was evaluated by Octet RED96e.
(§2) FIG. 5c is a graph depicting the KD values of anti-CD28/sPD-1 constructs on human sCD28 Fc-fusion protein by Octet RED96e. The equilibrium dissociation constant (KD) is calculated as the ratio koff/kₒₙ (with koff:dissociation rates, and kₒₙ:association rates).
(§3) Anti-CD28/sPD-1 antibody fusion constructs were assessed for their ability to bind CD28 by Octet RED96e. Recombinant human sCD28 Fc-fusion protein (PeproTech, #310-34) was loaded to protA sensor at 2.5 μg/ml. […] FIG. 5c is a summary of affinity (measured as Kd, M) for each construct on human CD28.

[2] = target: T2, Recombinant human PD-L1-His tag (ACROBiosystems, #PD1-H5229) (human, UniProt Q9NZQ7 19-238); assay: Octet RED96e; PD-L1-His loaded at 10 µg/ml on HIS1K sensor; sample 588,2 nM
T2 construct: Bought protein; also called sPD-L1; human PD-L1-His tag protein; not shown: His tag
Experimental: (§4) FIG. 3a is a graph of Octet binding studies on sPD-L1. Recombinant human PD-L1-His tag (ACROBiosystems, #PD1-H5229) was loaded to His-sensor (HIS1K (Anti-Penta-His)) at 10 μg/ml and the binding of each construct was evaluated by Octet RED96e.
(§5) FIG. 3c is a graph depicting the KD values of anti-CD28/sPD-1 constructs on human PD-L1-His tag protein by Octet RED96e. The equilibrium dissociation constant (KD) is calculated as the ratio koff/kₒₙ (with koff:dissociation rates, and kₒₙ:association rates).
(§6) Anti-CD28/sPD-1 antibody fusion constructs were assessed for their ability to bind PD-1 ligands, PD-L1 and PD-L2 by Octet RED96e. Recombinant human PD-L1-His tag (ACROBiosystems, #PD1-H5229) or recombinant human PD-L2-His tag (ACROBiosystems, #PD2-H5220) were loaded to His-sensor (HIS1 K (Anti-Penta-His)) at 10 μg/ml. […] FIG. 3c is a summary of affinity (measured as Kd, M) for each construct on human PD-L1. […] FIG. 4c is a summary of affinity (measured as Kd, M) for each construct on human PD-L2.

[3] = target: T1, Recombinant human sCD28 Fc-fusion …; assay: Octet RED96e; sCD28 Fc-fusion loaded at 2,5 µg/ml on protA sensor; sample 117,6 nM; control without CD28-binding Fab
Experimental: as §1, §2, §3

[4] = target: T3, Recombinant human PD-L2-His tag (ACROBiosystems, #PD2-H5220) (human, UniProt Q9BQ51 20-219); assay: Octet RED96e; PD-L2-His loaded at 10 µg/ml on HIS1K sensor; sample 588,2 nM
T3 construct: Bought protein; also called sPD-L2; human PD-L2-His tag protein; not shown: His tag
T3 sequence (looked up): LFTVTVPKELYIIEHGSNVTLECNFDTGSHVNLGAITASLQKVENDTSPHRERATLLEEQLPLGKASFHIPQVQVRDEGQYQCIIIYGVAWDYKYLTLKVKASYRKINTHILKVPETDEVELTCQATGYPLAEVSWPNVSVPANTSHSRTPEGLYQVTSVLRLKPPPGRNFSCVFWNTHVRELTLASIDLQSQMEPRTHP
Experimental: (§7) FIG. 4a is a graph of Octet binding studies on sPD-L2. Recombinant human PD-L2-His tag (ACROBiosystems, #PD2-H5220) was loaded to His-sensor (HIS1 K (Anti-Penta-His)) at 10 μg/ml and the binding of each construct was evaluated by Octet RED96e.
(§8) FIG. 4c is a graph depicting the KD values of anti-CD28/sPD-1 constructs on human PD-L2-His tag protein by Octet RED96e. The equilibrium dissociation constant (KD) is calculated as the ratio koff/kₒₙ (with koff:dissociation rates, and kₒₙ:association rates).
as §6

[5] = target: T2, Recombinant human PD-L1-His tag …; assay: Octet RED96e; PD-L1-His loaded at 10 µg/ml on HIS1K sensor; sample 117,6 nM
Experimental: as §4, §5, §6

[6] = target: T3, Recombinant human PD-L2-His tag …; assay: Octet RED96e; PD-L2-His loaded at 10 µg/ml on HIS1K sensor; sample 117,6 nM
Experimental: as §7, §8, §6

[7] = target: T3, Recombinant human PD-L2-His tag …; assay: Octet RED96e, PD-L2-His on HIS1K sensor
Experimental: as §7, §8, §6

[8] = target: T2, Recombinant human PD-L1-His tag …; assay: Octet RED96e; PD-L1-His loaded at 10 µg/ml on HIS1K sensor; sample 277,8 nM
Experimental: as §4, §5, §6

[9] = target: T3, Recombinant human PD-L2-His tag …; assay: Octet RED96e; PD-L2-His loaded at 10 µg/ml on HIS1K sensor; sample 55,6 nM
Experimental: as §7, §8, §6

[10] = target: T2, Recombinant human PD-L1-His tag …; assay: Octet RED96e, PD-L1-His on HIS1K sensor
Experimental: as §4, §5, §6

[11] = target: T2, Recombinant human PD-L1-His tag …; assay: Octet RED96e; PD-L1-His loaded at 10 µg/ml on HIS1K sensor; sample 55,6 nM
Experimental: as §4, §5, §6

[12] = target: T3, Recombinant human PD-L2-His tag …; assay: Octet RED96e; PD-L2-His loaded at 10 µg/ml on HIS1K sensor; sample 277,8 nM
Experimental: as §7, §8, §6

Kd [1]: 17.8 nM | koff [1]: 0.000107 s⁻¹ | kon [1]: 6000 M⁻¹ s⁻¹ | Kd [2]: 0.00629 nM | koff [2]: 6.93e-07 s⁻¹ | kon [2]: 110000 M⁻¹ s⁻¹ | Kd [3]: 2950 nM | koff [3]: 0.00204 s⁻¹ | kon [3]: 692 M⁻¹ s⁻¹ | Kd [4]: 0.0118 nM | koff [4]: 5.99e-07 s⁻¹ | kon [4]: 50700 M⁻¹ s⁻¹ | Kd [5]: 2.24 nM | koff [5]: 0.00132 s⁻¹ | kon [5]: 588000 M⁻¹ s⁻¹ | Kd [6]: 1.56 nM | koff [6]: 0.000461 s⁻¹ | kon [6]: 295000 M⁻¹ s⁻¹
B1: nonvalent (or dummy) Fc/sPD-1 mut (Fc fusion)
chain: DKTHTCPPCPAPEFEGGPSVFLFPPKPKDTLMISRTPEVTCVVVDVSHEDPEVKFNWYVDGVEVHNAKTKPREEQYNSTYRVVSVLTVLHQDWLNGKEYKCKVSNKALPASIEKTISKAKGQPREPQVYTLPPSREEMTKNQVSLTCLVKGFYPSDIAVEWESNGQPENNYKTTPPVLDSDGSFFLYSKLTVDKSRWQQGNVFSCSVMHEALHNHYTQKSLSLSPGGGGSGGGGSGGGGSLDSPDRPWNPPTFSPALLVVTEGDNATFTCSFSNTSESFVLNWYRMSPSNQTDKLAAFPEDRSQPGQDCRFRVTQLPNGRDFHMSVVRARRNDSGTYLCSAISLAPYIQIKESLRAELRVTERRAEVPTAHPSPSPRPAGQFQ
notes: also called Fc/sPD-1 mutated; Fc/sPD-1 mutant construct

Kd [7]: ~10 nM | Kd [8]: 37.5 nM | koff [8]: 0.0159 s⁻¹ | kon [8]: 423000 M⁻¹ s⁻¹ | Kd [9]: 7.73 nM | koff [9]: 0.00268 s⁻¹ | kon [9]: 347000 M⁻¹ s⁻¹ | Kd [10]: ~10 nM | Kd [11]: 21.7 nM | koff [11]: 0.0133 s⁻¹ | kon [11]: 614000 M⁻¹ s⁻¹ | Kd [12]: 18.1 nM | koff [12]: 0.00314 s⁻¹ | kon [12]: 174000 M⁻¹ s⁻¹
B2: bivalent anti-CD28/sPD-1 wt (bispecific antibody, human IgG1, kappa)
light: DIELTQSPASLAVSLGQRATISCRASESVEYYVTSLMQWYQQKPGQPPKLLIFAASNVESGVPARFSGSGSGTNFSLNIHPVDEDDVAMYFCQQSRKVPYTFGGGTKLEIKRTVAAPSVFIFPPSDEQLKSGTASVVCLLNNFYPREAKVQWKVDNALQSGNSQESVTEQDSKDSTYSLSSTLTLSKADYEKHKVYACEVTHQGLSSPVTKSFNRGEC
heavy: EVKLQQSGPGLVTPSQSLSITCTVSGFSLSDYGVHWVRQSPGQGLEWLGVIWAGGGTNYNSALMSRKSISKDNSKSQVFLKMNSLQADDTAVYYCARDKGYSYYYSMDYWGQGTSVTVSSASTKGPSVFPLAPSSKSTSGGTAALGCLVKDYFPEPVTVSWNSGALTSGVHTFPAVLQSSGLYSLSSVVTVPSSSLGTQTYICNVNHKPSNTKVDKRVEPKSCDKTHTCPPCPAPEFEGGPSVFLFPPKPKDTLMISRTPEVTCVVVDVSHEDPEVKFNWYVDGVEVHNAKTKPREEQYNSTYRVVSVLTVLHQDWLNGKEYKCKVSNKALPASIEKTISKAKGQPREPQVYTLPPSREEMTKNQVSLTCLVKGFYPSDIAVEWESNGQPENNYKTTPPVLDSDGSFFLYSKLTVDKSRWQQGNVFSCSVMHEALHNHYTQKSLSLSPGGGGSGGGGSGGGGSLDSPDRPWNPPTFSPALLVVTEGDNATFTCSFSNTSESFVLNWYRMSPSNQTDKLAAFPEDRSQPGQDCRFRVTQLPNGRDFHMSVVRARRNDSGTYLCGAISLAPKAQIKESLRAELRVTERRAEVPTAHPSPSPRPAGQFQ
notes: Two Fabs of clone 9.3 against CD28, two wild-type sPD-1 fragments; also called Bivalent anti-CD28/sPD-1 Wild type structure; bispecific protein complex A:B-C-X:D-C'-Y
